The data set concerns CCCCCCCC(=O)Oc1ccc([N+](=O)[O-])cc1. The data set is described as follows: purified protein. The class given is biochemical, Pseudomonas chlororaphis. Conditions: optimal assay conditions (optimum pH 6.0, 50 °C), 0.1-3.0 mmol/L substrate.

One may read the Km as the substrate concentration at which the rate is half of its maximum. As for LIP4 (Pseudomonas chlororaphis), the Km was determined as 333 µM.

For the origin of these results see PMC10003648, “Polymer-Degrading Enzymes of Pseudomonas chloroaphis PA23 Display Broad Substrate Preferences” (International Journal of Molecular Sciences, 2023).
